Kd, IC50 and stoichiometry N data for 16 molecules are collected here from article PMC9233744.

No end group written: not given here.

The first experiment addresses Rgg144 (recombinant, Streptococcus pneumoniae D39, SPD_0144) (Streptococcus pneumoniae D39). Put plainly: fluorescence polarisation. On the technique in general: Polarisation of emitted light reports the rotation of a fluorescent probe.
Broadly, the Kd is a measure of binding affinity in units of concentration. For AEWVIVIPFLTNL (also: FITC label, position not given here) [FITC-labeled SHP144 S14A], the Kd stood at 8.1 µM.

With SEWVIVIPFLTAL (also: FITC label, position not given here) [FITC-labeled SHP144 N25A], the Kd worked out at 3.3 µM.

On to SEWVIVAPFLTNL (also: FITC label, position not given here) [FITC-labeled SHP144 I20A], for which the Kd stood at 23.5 µM.

On to SEWVIVIAFLTNL (also: FITC label, position not given here) [FITC-labeled SHP144 P21A], for which the Kd is 1.7 µM.

Turning to SEWVIVIPFATNL (also: FITC label, position not given here) [FITC-labeled SHP144 L23A], the Kd amounted to 4.3 µM.

For SEWAIVIPFLTNL (also: FITC label, position not given here) [FITC-labeled SHP144 V17A], the Kd is 9.7 µM.

On to SEWVIVIPALTNL (also: FITC label, position not given here) [FITC-labeled SHP144 F22A], for which the Kd was found to be 7.1 µM.

Regarding SEWVIAIPFLTNL (also: FITC label, position not given here) [FITC-labeled SHP144 V19A], the Kd worked out at 4 µM.

Consider SEWVAVIPFLTNL (also: FITC label, position not given here) [FITC-labeled SHP144 I18A], for which the Kd was greater than 100 µM.

On to SEWVIVIPFLTNA (also: FITC label, position not given here) [FITC-labeled SHP144 L26A], for which the Kd was 3.4 µM.

For SEAVIVIPFLTNL (also: FITC label, position not given here) [FITC-labeled SHP144 W16A], the Kd amounted to 50 µM.

The term IC50 denotes the concentration at which inhibition is half-maximal. Consider SEWVIVIPFLTNL [unlabeled SHP144 (13-residue synthetic peptide, wild type)], for which the IC50 stood at 86.8 µM.

Take SAWVIVIPFLTNL (also: FITC label, position not given here) [FITC-labeled SHP144 E15A]: the Kd turned out to be 3.3 µM.

Turning to SEWVIVIPFLTNL (also: FITC label, position not given here) [FITC-labeled SHP144 (SHP144-C13), wild type], the Kd was 6.6 µM.

As for SEWVIVIPFLANL (also: FITC label, position not given here) [FITC-labeled SHP144 T24A], the Kd worked out at 3.3 µM.

A further experiment shares this target. Briefly: SEC. (Size exclusion chromatography separates by hydrodynamic size, large species first.)
By stoichiometry N is commonly meant the number of molecules, sites or subunits per partner or assembly. On to “Rgg144 (recombinant, Streptococcus pneumoniae D39, SPD_0144) (natural protein)”, for which the stoichiometry N was 2.
